According to the RNAGym collection of RNA variant scans (doi:10.7554/elife.80360):

B1: Hairpin Ribozyme (parent)
chain: GUCCUCUUUCACGUGCGCGUGAAAGAGAGAAGUGAACCAGAGAAACACACGUUGUGGUAUAUUACCUGGUA

Variants of: B1
Experiment: self-cleavage, relative activity (ratio to wild type); higher = more cleavage; co-transcriptional
With GUCCUCUUUCACGUGCGCGUGAAAGAGAGAAGUGAAGCAGAGAACCACACGUUGUGGUAUAUUACCUGGUA [C37G A45C] the self-cleavage was 0.112.
Variant GUCCUCUUUCACGUGCGCGUGAAAGAGAGAAGUGAAGCAGAGAAACAAACGUUGUGGUAUAUUACCUGGUA [C37G C48A] has a self-cleavage of 0.192.
For GUCCUCUUUCACGUGCGCGUGAAAGAGAGAAGUGAAGCAGAGAAACACAGGUUGUGGUAUAUUACCUGGUA [C37G C50G], the self-cleavage was 0.0454.
With GUCCUCUUUCACGUGCGCGUGAAAGAGAGAAGUGAAACAGAGAAACACAUGUUGUGGUAUAUUACCUGGUA [C37A C50U] the self-cleavage was 0.138.
For GUCCUCUUUCACGUGCGCGUGAAAGAGAGAAGUGAAACAGAGAAACACACGUUGUGGUAUAUUACCUCGUA [C37A G68C], the self-cleavage was 0.254.
For GUCCUCUUUCACGUGCGCGUGAAAGAGAGAAGUGAAGCAGAGAAACACACGUUGUGGUAUAUCACCUGGUA [C37G U63C], the self-cleavage was 0.154.
In the case of GUCCUCUUUCACGUGCGCGUGAAAGAGAGAAGUGAAGCAGAGAAACACACGUUGUGGUAUAUUACCUGGUU [C37G A71U], the self-cleavage is reported as 0.216.
Work on GUCCUCUUUCACGUGCGCGUGAAAGAGAGAAGUGAAGCAGAGAAACACACGUUGUGGUAUAUUACCUGGUC [C37G A71C] yielded a self-cleavage of 0.784.
Work on GUCCUCUUUCACGUGCGCGUGAAAGAGAGAAGUGAAGCAGAGAAACACGCGUUGUGGUAUAUUACCUGGUA [C37G A49G] yielded a self-cleavage of 0.18.
Work on GUCCUCUUUCACGUGCGCGUGAAAGAGAGAAGUGAAGCAUAGAAACACACGUUGUGGUAUAUUACCUGGUA [C37G G40U] yielded a self-cleavage of 0.186.
Variant GUCCUCUUUCACGUGCGCGUGAAAGAGAGAAGUGAAACAGAGAAACACACGUGGUGGUAUAUUACCUGGUA [C37A U53G] has a self-cleavage of 0.23.
With GUCCUCUUUCACGUGCGCGUGAAAGAGAGAAGUGAAGCAGAGAAACACACGUUGUGGUAUAUUACGUGGUA [C37G C66G] the self-cleavage was 0.154.
Work on GUCCUCUUUCACGUGCGCGUGAAAGAGAGAAGUGAAGCAGAGAAACACACGUUGUCGUAUAUUACCUGGUA [C37G G56C] yielded a self-cleavage of 0.176.
For GUCCUCUUUCACGUGCGCGUGAAAGAGAGAAGUGAAACAGAGAAACACACGUUGUUGUAUAUUACCUGGUA [C37A G56U], the self-cleavage was 0.189.
With GUCCUCUUUCACGUGCGCGUGAAAGAGAGAAGUGAAACAGAGAAACACACGUUGUAGUAUAUUACCUGGUA [C37A G56A] the self-cleavage was 0.156.
Work on GUCCUCUUUCACGUGCGCGUGAAAGAGAGAAGUGAAACAGAGAAACACACGUUGUGGUAUAUUACUUGGUA [C37A C66U] yielded a self-cleavage of 0.179.
In the case of GUCCUCUUUCACGUGCGCGUGAAAGAGAGAAGUGAAACAGAGAAACACACGUUGUGGUAUAUUACGUGGUA [C37A C66G], the self-cleavage is reported as 0.105.
With GUCCUCUUUCACGUGCGCGUGAAAGAGAGAAGUGAAACAGAGAAACACACGUUGUGGUAUAUUACAUGGUA [C37A C66A] the self-cleavage was 0.0612.
GUCCUCUUUCACGUGCGCGUGAAAGAGAGAAGUGAAACAGAGAAACACACGUUGUGGUAUAUUACCUGGGA [C37A U70G] gave a self-cleavage of 0.446.
GUCCUCUUUCACGUGCGCGUGAAAGAGAGAAGUGAAGCAGAGAAACACACGUUGUGGUAUCUUACCUGGUA [C37G A61C] gave a self-cleavage of 0.112.
GUCCUCUUUCACGUGCGCGUGAAAGAGAGAAGUGAAACAGAGAAACACACGUUGUGGUAUAUGACCUGGUA [C37A U63G] gave a self-cleavage of 0.131.
GUCCUCUUUCACGUGCGCGUGAAAGAGAGAAGUGAAGCAGAGAAACACACGUUGUGGUAUAUUACCUGGUA [C37G] showed a self-cleavage of 0.363.
Work on GUCCUCUUUCACGUGCGCGUGAAAGAGAGAAGUGAAUCAGAGAAACACACGUUGUGGUAUAUUACCUGGUA [C37U] yielded a self-cleavage of 0.614.
In the case of GUCCUCUUUCACGUGCGCGUGAAAGAGAGAAGUGAAUCAGAGAAACACCCGUUGUGGUAUAUUACCUGGUA [C37U A49C], the self-cleavage is reported as 0.0924.
With GUCCUCUUUCACGUGCGCGUGAAAGAGAGAAGUGAAGCAGACAAACACACGUUGUGGUAUAUUACCUGGUA [C37G G42C] the self-cleavage was 0.152.
GUCCUCUUUCACGUGCGCGUGAAAGAGAGAAGUGAAGCAGAGAAACACACGUUGUGGUAUAUUACCCGGUA [C37G U67C] showed a self-cleavage of 0.167.
For GUCCUCUUUCACGUGCGCGUGAAAGAGAGAAGUGAAGCAGAGAAACACACGUUGUGGUAUAUUACCGGGUA [C37G U67G], the self-cleavage was 0.132.
With GUCCUCUUUCACGUGCGCGUGAAAGAGAGAAGUGAAGCAGAGAAACACACGUUGUGGUUUAUUACCUGGUA [C37G A59U] the self-cleavage was 0.0586.
In the case of GUCCUCUUUCACGUGCGCGUGAAAGAGAGAAGUGAAACAGAGAAACACACGUUGUGGUAUAUUACCUGUUA [C37A G69U], the self-cleavage is reported as 0.777.
Variant GUCCUCUUUCACGUGCGCGUGAAAGAGAGAAGUGAAGCAGAGACACACACGUUGUGGUAUAUUACCUGGUA [C37G A44C] has a self-cleavage of 0.16.
Variant GUCCUCUUUCACGUGCGCGUGAAAGAGAGAAGUGAAUCAGAGAUACACACGUUGUGGUAUAUUACCUGGUA [C37U A44U] has a self-cleavage of 0.173.
GUCCUCUUUCACGUGCGCGUGAAAGAGAGAAGUGAAGCAGAGAAACACACGUUGUGGUACAUUACCUGGUA [C37G U60C] showed a self-cleavage of 0.331.
With GUCCUCUUUCACGUGCGCGUGAAAGAGAGAAGUGAAUCAGGGAAACACACGUUGUGGUAUAUUACCUGGUA [C37U A41G] the self-cleavage was 0.994.
Work on GUCCUCUUUCACGUGCGCGUGAAAGAGAGAAGUGAAACAGAGAAACACACGUUGUGCUAUAUUACCUGGUA [C37A G57C] yielded a self-cleavage of 0.158.
GUCCUCUUUCACGUGCGCGUGAAAGAGAGAAGUGAAGCAGAGAAACACACGUUGUGGUAUAUUACCUGCUA [C37G G69C] showed a self-cleavage of 0.984.
Work on GUCCUCUUUCACGUGCGCGUGAAAGAGAGAAGUGAAGCAGAGAAACACACGUUGUGGUAUAUUACCUGAUA [C37G G69A] yielded a self-cleavage of 0.346.
GUCCUCUUUCACGUGCGCGUGAAAGAGAGAAGUGAAGCAGAGAAACACACGUUGUGGUAUAGUACCUGGUA [C37G U62G] gave a self-cleavage of 0.138.
GUCCUCUUUCACGUGCGCGUGAAAGAGAGAAGUGAAGCAGAGAAACACACAUUGUGGUAUAUUACCUGGUA [C37G G51A] showed a self-cleavage of 0.647.
